Measured values as given in the supplement of paper PMC10567573.
± gives the standard deviation.

Test: protein stability index of a GFP-peptide fusion (GPS, HEK-293T) (PSI 1-6); higher = more stable
[1] = treatment: DMSO, c terminus: a fixed tail appended
[2] = treatment: MLN4924 1 uM, 8 h, c terminus: a fixed tail appended
[3] = treatment: DMSO, c terminus: native
[4] = treatment: MLN4924 1 uM, 8 h, c terminus: native
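Note: 24-mer peptide tiles fused after GFP, lentivirally expressed, FACS-sorted into six equal bins by GFP/DsRed ratio, decoded by Illumina sequencing, PSI is the read-weighted mean bin number.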

Row | Sequence | protein stability index [1] | protein stability index [2] | protein stability index [3] | protein stability index [4]
1 | APEAKDGSSFSGRVFRVTFLMLAV [APMAP] | 3.47 ± 0.77 | 2.77 ± 0.75 | – | –
2 | AASLVTMGIVNLNIHMNFTHICRS [SLC2A12] | 3.46 ± 0.27 | 3.16 ± 0.21 | – | –
3 | IEVNGENVEDASHEEVVEKVKKSG [PDZK1] | 5.63 ± 0.16 | 5.34 ± 0.38 | – | –
4 | EHKETSRNLHSHYHEAPMTRKHYQ [POMT2] | 4.09 ± 0.28 | 4.22 ± 0.2 | – | –
5 | PTQQDVLRTRVKTTGIVETHFTFK [GNAI1] | 3.05 ± 0.42 | 3.51 ± 0.37 | – | –
6 | PLPEAIDPDVGVNSLQSYQLSPNK [PCDHGA10] | 5.35 ± 0.26 | 5.25 ± 0.24 | – | –
7 | SAASSAAAGEPLECPTCGHSYNVT [RNF208] | 4.87 ± 0.27 | 4.77 ± 0.24 | – | –
8 | SNAERGTAEPFPRLHNLYSTPRCA [CBY2] | 3.95 ± 0.26 | 4.03 ± 0.14 | – | –
9 | SIQVRRKPQHGVCSQLLGNYRCL [SERPINB9P1] | – | – | 2.69 ± 0.51 | 3.09 ± 0.18
10 | EAAMAIASLNGYRLGERVLQVSFK [ELAVL3] | 2.24 ± 0.11 | 2.27 ± 0.17 | – | –
11 | VEVLVDLFLKEGACDELFSYLIEK [PRAME] | 2.55 ± 0.66 | 3.03 ± 0.58 | – | –
12 | MNVMLKSSPVDLVTATDQKVEKML [IMPA1] | 3.832 ± 0.018 | 3.96 ± 0.49 | – | –
13 | EPELSPAYLISEAMRRSRMSLYC [GFOD1] | – | – | 2.3 ± 0.81 | 2.27 ± 0.3
14 | QLGTLAGSKYYNVEAMYCYLRCIQ [SMG5] | 2.68 ± 0.29 | 2.3 ± 0.41 | – | –
15 | AGAEPLPRNGDQWHEIRQGRLPRI [WEE1] | 3.86 ± 0.47 | 4.24 ± 0.4 | – | –
16 | RETYPRTPYVRWNYVAKNFAQALG [SOAT2] | 2.34 ± 0.34 | 2.17 ± 0.38 | – | –
17 | LSARDHQKLEREARICRLLKHPNI [CAMK2A] | 2.98 ± 0.069 | 3.01 ± 0.26 | – | –
18 | SGYMEGYYTFHFLYFKDKIFNVAI [FBXO3] | 3.36 ± 0.48 | 2.75 ± 0.15 | – | –
19 | MLEMVPEKRASAGECLRHPWLNS [SRPK2] | – | – | 3.79 ± 0.34 | 3.85 ± 0.25
20 | YSPRRSRGSPRYSPRHSRSRSRT [SRSF1] | – | – | 4.18 ± 0.35 | 4.49 ± 0.26
21 | PNAFIGSDVVDWLYHNVEGFTDRR [DVL3] | 3.13 ± 0.26 | 3.15 ± 0.32 | – | –
22 | LNSEQAEQLERINDALSCEYECRR [FAM98B] | 4.54 ± 0.29 | 4.66 ± 0.11 | – | –
23 | ERRPVAQSTDGARGKRGYSRGLHA [SPSB2] | 4.52 ± 0.11 | 4.58 ± 0.13 | – | –

Row | Sequence | protein stability index [1] | protein stability index [2] | protein stability index [3] | protein stability index [4]
24 | LGQHMVEQLLARGYAVNVFDIQQG [NSDHL] | 2.72 ± 0.9 | 2.22 ± 0.57 | – | –
25 | VVHRSDEQQHYFNTPFQLSIAPPE [PPTC7] | 3.96 ± 0.28 | 4 ± 0.24 | – | –
26 | TKKGFYSLSVRHRQVKHYRIFRLP [SLA] | 2.54 ± 0.45 | 2.54 ± 0.31 | – | –
27 | SRQYDKFLTHFILMNDVIDTSGFP [FBXO33] | 2.51 ± 0.5 | 1.97 ± 0.5 | – | –
28 | TSPAKDSLSFEDFLDLLSVFSDTA [CIB1] | 2.28 ± 0.1 | 2.45 ± 0.27 | – | –
29 | GPDNLVLLNPEKYKAKSRSPGSPV [ADD1] | 4.47 ± 0.25 | 4.63 ± 0.13 | – | –
30 | PNLSLASEDEEEYESGYAFLPDLL [SMG5] | 4.32 ± 0.2 | 4.47 ± 0.15 | – | –
31 | TTLGPKLASQALTPPPGPASAQPL [TFE3] | 4.4 ± 0.48 | 4.4 ± 0.18 | – | –
32 | WRKRFTEQPITDFCSVIRINSTAP [ZNF277] | 2.48 ± 0.55 | 2.23 ± 0.087 | – | –
33 | IELQAQHSMRNSLESTLAETEARY [KRT36] | 4.38 ± 0.15 | 4.23 ± 0.23 | – | –
34 | SCSEICYTFIIVPKMLVDLLSQKK [OR10K2] | 2.91 ± 0.77 | 2.71 ± 0.79 | – | –
35 | SAASTSFQPQPVQPQQGYIPPMAQ [ZNF207] | 4.3 ± 0.17 | 4.38 ± 0.1 | – | –
36 | IDRMFPEMSIHLSRPNGTSAMLLV [MED27] | 2.65 ± 0.71 | 2.75 ± 0.52 | – | –
37 | EHNSSLVSQQTGSPGKQPGENSDC [ZNF8] | 5.25 ± 0.3 | 5.39 ± 0.073 | – | –
38 | IRARELQNIYKCIMLKNISQDERL [IQUB] | 2.25 ± 0.57 | 2.15 ± 0.54 | – | –
39 | ARDTVQVELIPEKKGLFLKHVEYE [SNX8] | 3.65 ± 0.39 | 3.73 ± 0.26 | – | –
40 | CENFPEMATYLRYVRRLDFFEKPD [CSNK1G3] | 2.21 ± 0.25 | 2.59 ± 0.51 | – | –
41 | FYLVYFKIQASGETPNSLNTTVIP [LYSMD4] | 2.9 ± 0.04 | – | – | –
42 | AHDNSEELERARELKEKEATLCLE [ANKRD44] | 5.58 ± 0.21 | 5.45 ± 0.26 | – | –
43 | DCGTIQENWVCLSCYQVYCGRYIN [HDAC6] | 2.85 ± 1.1 | 2.39 ± 0.63 | – | –
44 | KITDFQLHASTVKRYGLGAHRGRL [CPXM2] | 3.133 ± 0.018 | 3.22 ± 0.53 | – | –
45 | NIMPYESTRVCLQPIRGVEGSDYI [PTPRD] | 2.91 ± 0.084 | 3.09 ± 0.18 | – | –
46 | GVWAVIISHQQCWASTSPGTDLPL [TRIM15] | 2.75 ± 0.97 | 2.67 ± 0.18 | – | –

Row | Sequence | protein stability index [1] | protein stability index [2] | protein stability index [3] | protein stability index [4]
47 | RIFAQYMVPHNLETTERMKCLYYL [PDS5B] | 2.91 ± 0.62 | 2.36 ± 0.43 | – | –
48 | FKPKNEEPYGHLNPKWTKWLQKLC [PI4K2A] | 2.88 ± 0.58 | 2.79 ± 0.54 | – | –
49 | TTGIVETHFTFKDLHFKMFDVGGQ [GNAI1] | 2.08 ± 0.35 | 2.27 ± 0.14 | – | –
50 | KVLNMWCCCFFKRRKRKTIQRHK [CSNK1G3] | – | – | 2.56 ± 0.16 | 2.86 ± 0.22
51 | EPPPEVWQVLKTHPGDPRFQCSLW [POLD4] | 2.45 ± 0.42 | 2.55 ± 0.31 | – | –
52 | DEVDDFEDFIFSHFFGDKALKKRS [PBXIP1] | 3.26 ± 0.23 | 3.29 ± 0.39 | – | –
53 | CEQCGKCKCGECTAPRTLPSCLAC [SPRY1] | 4.34 ± 0.2 | 4.56 ± 0.22 | – | –
54 | YLSPLERKRLAREMQLSEVQIKTW [VENTX] | 2.5 ± 0.2 | 2.7 ± 0.24 | – | –
55 | DCGLNLKQRGYFFLDERLYCESHA [PDLIM4] | 2.43 ± 0.17 | 2.3 ± 0.44 | – | –
56 | IIEVLSNALSKSSAPPITPECRQV [CHGB] | 2.29 ± 0.54 | 2.32 ± 0.22 | – | –
57 | DFGFAILGFAYAKEDKIMLDDRKN [MIA2] | 2.05 ± 0.26 | 2.16 ± 0.48 | – | –
58 | TNKFYMLDSRSTDRVLQWERIDCQ [KLHDC2] | 2.43 ± 0.36 | 2.8 ± 0.58 | – | –
59 | TYLCERCQPRNLDKERAVLLQRRK [KMT2E] | 2.57 ± 0.48 | 3.32 ± 0.54 | – | –
60 | ERCFRGSSYPVCVSKVVKGGSSGK [OAS1] | 3.84 ± 0.13 | 4.07 ± 0.12 | – | –
61 | TGIIDSLTISPKAARVGLLQYSTQ [MATN2] | 2.72 ± 1.3 | 2.43 ± 0.23 | – | –
62 | SRSQNTDMVQKSVSKTLPSTWSDP [CLINT1] | 3.87 ± 0.28 | 3.98 ± 0.23 | – | –
63 | ILDTAGQAEFTAMRDQYMRAGEGF [RIT1] | 3.44 ± 0.29 | 3.6 ± 0.23 | – | –
64 | LEQPFLSVFKKGRRRVPVRNLGKV [PLEKHN1] | 3.19 ± 0.31 | 3.56 ± 0.58 | – | –
65 | LLTLLPQLQEAWQQRTPSPVPGG [RSAD1] | – | – | 3.3 ± 0.21 | 2.83 ± 0.54
66 | GAEDGDRAILYPCHGMSSQLVRYS [GALNT9] | 3.09 ± 0.17 | 3.16 ± 0.29 | – | –
67 | KGNPEEEDVDTSQVLYEWEQGFSQ [CTNNB1] | 5.11 ± 0.25 | 5.25 ± 0.28 | – | –
68 | ENSVEFEACLVAQCDALIDALNRR [TRIM9] | 2.88 ± 0.24 | 3.11 ± 0.37 | – | –
69 | VVPDVRSVVTTARMQVLKRQVQSL [SMARCE1] | 2.5 ± 0.14 | 2.85 ± 0.21 | – | –

Row | Sequence | protein stability index [1] | protein stability index [2] | protein stability index [3] | protein stability index [4]
70 | QCGETMKETVNVKTVCGYYTSAGT [GMCL1] | 3.7 ± 0.22 | 3.77 ± 0.28 | – | –
71 | RIPTCHDKPGTTQIVQLTQQVDTN [DENND6A] | 4.6 ± 0.14 | 4.59 ± 0.14 | – | –
72 | VEGKGNGIKTVIVNMVDVAKALNR [EIF5] | 2.14 ± 0.21 | 2.22 ± 0.31 | – | –
73 | LLRHRMNWLGRPSKVLSLQDLCCR [RAB40A] | 2.62 ± 0.27 | 2.71 ± 0.35 | – | –
74 | HNIVHVHFDATRGWLLTSGTDKVI [WDFY2] | 2.26 ± 0.45 | 2.25 ± 0.15 | – | –
75 | HAPQISYTGPSSSGRFAGREWYYG [NCK2] | 2.52 ± 0.17 | 2.8 ± 0.4 | – | –
76 | WNFDFVTETPLEGDFAWERVRGLG [CDKN1A] | 2.54 ± 0.42 | 2.8 ± 0.39 | – | –
77 | LQHGDQLSICFTCFKAAFLDFKDL [TEX19] | 2.89 ± 0.52 | 2.51 ± 0.36 | – | –
78 | ELRVLADTYDSVYLHPNSYSCACL [HDAC6] | 2.03 ± 0.12 | 2.04 ± 0.4 | – | –
79 | IAILLYKSKPDRKRAESDSRKSSI [PTPRD] | 1.75 ± 0.23 | 1.92 ± 0.44 | – | –
80 | KDMNFLKRYAGREEHWVGLKKEPG [CD69] | 3.61 ± 0.16 | 3.79 ± 0.21 | – | –
81 | NVKYLKKILDELEKVLDQVETELQ [GDAP1] | 4.25 ± 0.077 | 4.23 ± 0.14 | – | –
82 | LRGPRERAPSERSGPAASEHSHRS [DVL3] | 5.14 ± 0.3 | 5.34 ± 0.057 | – | –
83 | TKEVMNKYKVHGKEILRTLQDVFC [PPEF2] | 2.63 ± 0.12 | 2.65 ± 0.34 | – | –
84 | KYKRRRFQKTKNLLTGETEADPEM [CLPTM1] | 4.83 ± 0.28 | 4.57 ± 0.4 | – | –
85 | VLTDSNHVPLQRLSLLVHNVSVMH [FBXO33] | 1.96 ± 0.3 | 2.22 ± 0.28 | – | –
86 | DQLTQIMRTGQNTWESKNILAVSF [PCMTD1] | 2.21 ± 0.22 | 1.92 ± 0.36 | – | –
87 | LPPEALTAPSGGQWGAEPEGSCYQ [RNF208] | 4.73 ± 0.42 | 4.73 ± 0.078 | – | –
88 | IDYGANVNQPNNNGFTPLHFAAAS [ANKRD44] | 3.1 ± 0.19 | 3 ± 0.26 | – | –
89 | ASSLNGGNIKGIEGHSPGNLPKFC [ZC2HC1A] | 3.56 ± 0.078 | 4.02 ± 0.15 | – | –
